# Assay results: US20220153854A1 (Ablynx, published 2022)
# B1: ISVD construct F027100187 (other)
# chain: DVQLVESGGGVVQPGGSLRLSCAASRSIGRYDRMGWYRHRPGEPRELVATITGGSSINYGDSVKGRFTISIDNSKNTVYLQMNSLRPEDTALYYCNFNKYQISRDTWGQGTLVTVSSGGGGSGGGSEVQLVESGGGVVQPGGSLRLSCAASGRTFSSYRMGWFRQAPGKEREFVAALSGDGYSTYTANSVKGRFTISRDNSKNTVYLQMNSLRPEDTALYYCAAKLQYVSGWSYDYPYWGQGTLVTVSSGGGGSGGGSEVQLVESGGGVVQPGGSLRLSCAASGFTFRSFGMSWVRQAPGKGPEWVSSISGSGSDTLYADSVKGRFTISRDNSKNTLYLQMNSLRPEDTALYYCTIGGSLSRSSQGTLVTVSSGGGGSGGGSEVQLVESGGGVVQPGGSLRLSCAASGFTFNNYAMKWVRQAPGKGLEWVSSITTGGGSTDYADSVKGRFTISRDNSKNTLYLQMNSLRPEDTALYYCANVPFGYYSEHFSGLSFDYRGQGTLVTVSSA
# notes: Tetravalent, trispecific single-chain construct of four VHH (ISVD) domains: one against OX40L, two against IL-13, one against serum albumin; also called F0271000187; F27100187
# Experiments:
# cyno IL-13 [1] = molecular target: T1, cyno IL-13 (cynomolgus monkey, UniProt Q0PW92 21-132); experiment: Gyrolab in-solution affinity, 48 h incubation; 95% CI 7.0-9.3 pM
# T1 construct: also called cynomolgus monkey IL-13
# T1 sequence (Q0PW92 entry or part of it): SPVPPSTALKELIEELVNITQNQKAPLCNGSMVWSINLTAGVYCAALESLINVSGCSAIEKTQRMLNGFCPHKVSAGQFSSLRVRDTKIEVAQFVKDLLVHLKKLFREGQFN
# Experimental: (§1) Under receptor-controlled measurements a serial dilution of OX40L (ranging from 1.3 μM-0.031 μM), IL-13 (ranging from 0.1 μM-0.25 fM), or serum albumin (ranging from 100 μM-3.2 μM) and a fixed amount of ISVD construct F027100187 (5 nM in case of OX40L, […] in case of IL-13 and 30 nM in case of HSA and cyno SA) were mixed to allow interaction and incubated for either 24 or 48 hours (in case of OX40L and IL-13) or 2 hours (in case of serum albumin) to reach equilibrium.
# (§2) Biotinylated human OX40L/IL-13/serum albumin was captured in the microstructures of a Gyrolab Bioaffy 1000 CD, which contains columns of beads and was used as a molecular probe to capture free F027100187 from the equilibrated solution. The mixture of OX40L/IL13/serum albumin and F027100187 (containing free OX40UIL-13/serum albumin, free F027100187 and OX40L/IL13/serum albumin—F027100187 complexes) was allowed to flow through the beads, and a small percentage of free F027100187 was captured, which is proportional to the free ISVD construct concentration. A fluorescently labeled anti-ISVD antibody, ABH0086-Alexa647, was then injected to label any captured F027100187 and after rinsing away excess of fluorescent probe, the change in fluorescence was determined. Fitting of the dilution series was done using Gyrolab Analysis software, where KD- and receptor-controlled curves were analyzed to determine the KD value.
# human IL-13 = molecular target: T2, human IL-13 (human, UniProt P35225 35-146, limits assumed); experiment: Gyrolab in-solution affinity, 48 h incubation; 95% CI 3.4-7.1 pM
# T2 construct: Recombinant soluble protein; also called hIL-13; soluble hIL-13
# T2 sequence (P35225 35-146 limits assumed): as the sequence (Q0PW92 entry or part of it) above, with S1G, K10R, V42M, N67S, R83H, V100L counted along it
# Experimental: as §1, §2
# cyno IL-13 [2] = molecular target: T1, cyno IL-13; experiment: Gyrolab in-solution affinity, 48 h incubation; 95% CI 4.7-7.1 pM
# Experimental: as §1, §2
# [3] = molecular target: T3, membrane bound human OX40L on CHO-KI cells (human, UniProt P23510 1-183); experiment: flow cytometry on fixed CHO-KI cells expressing human OX40L, 48 h incubation
# T3 construct: whole, on cells; also called CHO-KI cells expressing human OX40L
# T3 sequence (looked up): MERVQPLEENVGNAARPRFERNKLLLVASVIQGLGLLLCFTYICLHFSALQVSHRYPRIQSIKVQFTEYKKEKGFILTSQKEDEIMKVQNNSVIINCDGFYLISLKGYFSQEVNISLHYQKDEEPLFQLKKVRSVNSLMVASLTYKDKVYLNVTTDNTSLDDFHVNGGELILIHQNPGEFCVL
# Experimental: Briefly, cells were fixed with 4% paraformaldehyde and 0.1% Glutaraldehyde in PBS, seeded at a density of 1×10⁴ cells/well and incubated with a dilution series of ISVD F027100187 or reference compound anti-hOX40L mAb, named Comparator 3, starting from 100 nM […] 0.5 μM, for 48 hours at room temperature. Comparator 3 is a standard conventional monoclonal antibody directed against human OX40L, which is used as a reference throughout the Examples 1 to 12 described herein. Cells were washed 3 times and subsequently incubated with an anti-VHH mAb (ABH00119) for 30 min at 4° C., washed again, and incubated for 30 min at 4° C. with a goat anti-mouse PE or FITC labeled antibody. Samples were washed and resuspended in FACS Buffer (D-PBS with 10% FBS and 0.05% sodium azide supplemented with 5 nM TOPRO3). Cell suspensions were then analyzed on an iQuescreener. EC50 values were calculated using GraphPad Prism.
binder,measurement,setting,value
B1,Kd,cyno IL-13 [1],8.2 pM
same,Kd,human IL-13,5.3 pM
same,Kd,cyno IL-13 [2],5.9 pM
same,EC50,[3],23.5 pM
